Results from article PMC9338999.
pKd: −log10 of the molar value.

Assays:
[1] = biological target: full-length human wild-type EGFR on NIH3T3 cells (human) (UniProt P00533); assay: FACS
[2] = biological target: full-length human EGFR S492R on NIH3T3 cells (human) (UniProt P00533); assay: FACS
WT-EGFR-ECD-Fc (human) = WT-EGFR-ECD-Fc (human) (UniProt P00533); assay: ELISA
[3] = biological target: S492R-EGFR-ECD-Fc (human) (UniProt P00533); assay: ELISA

Panitumumab
pKd [1]: 8.63 | pKd [2]: 8.63 | pKd (WT-EGFR-ECD-Fc (human)): 10.68 | pKd [3]: 10.57
